Experimental data taken from patent US6322962A, “Sterol-regulated Site-1 protease and assays of modulators thereof” (Board of Regents, The University of Texas System, priority 1999, dated 2001).

Assays:
[1] = tested on: furin; details: cited from earlier work
[2] = tested on: SREBP-2; assay: Immunoblot of cleavage of HSV-tagged SREBP-2 in transfected SRD-12B cells; format: cell-based, hamster; details: for cleavage of SREBP-2 by S1P or S1P mutant: SRD-12B cells, HSV-tagged SREBP-2
Description: On day 0, SRD-12B cells were set up at a density of 6×10^5 cells/60-mm dish in medium B. On day 1, cells were transfected with 4 μg of the indicated plasmid DNA plus 12 μl of LipofectAMINE™ reagent (Life Technologies) according to the manufacturer's instructions with modifications as follows. LipofectAMINE™/DNA complexes were formed in 1 ml of serum-free medium for 15 min at room temperature, and 0.5 ml were added to 1 ml of serum-free medium per dish. […] After incubation at 37 ° C. for 20 h, the cells received N-acetyl-leucinal-leucinal norleucinal (ALLN) at a final concentration of 25 μg/ml. […] After boiling for 5 min, the proteins were subjected to SDS-PAGE and transferred to Hybond-C Extra nitrocellulose filters (Amersham). The filters were incubated with the antibodies described in the figure legends. […] Gels were calibrated with prestained molecular weight markers (New England Biolabs, Beverly, Mass.). Filters were exposed to X-Omat Blue XB-1 film (Kodak, Rochester, N.Y.) with intensifying screens at room temperature for the indicated time.
Cell membranes and nuclear extracts were subjected to electrophoresis and blotted with an antibody against the HSV epitope-tag.
In a more direct test for S1P catalytic activity, the mutant plasmids were transfected into the SRD-12B cells together with pTK-HSV-BP2. Membranes and nuclear extracts were subjected to SDS-PAGE and blotted with an antibody against the HSV-tagged SREBP-2 (FIG. 9B).
The inventors cotransfected cDNAs encoding wild-type S1P or one of the mutants. Cell membrane pellets and nuclear extracts were subjected to SDS-PAGE. and the NH2 -terminus of SREBP-2 was visualized by immunoblotting with anti-HSV (FIG. 16A).

| Molecule | cleavage of SREBP-2 by S1P or S1P mutant [2] | other results |
| --- | --- | --- |
| O=C(O)CN(CCN(CC(=O)O)CC(=O)O)CC(=O)O [EDTA] |  | inhibition of furin ([1]; Nakayama, 1997, Molloy et al., 1992): totally inhibited |
| furin: subtilisin-like protease, literature comparator |  | Kcat (furin in a similar assay) ([1]; Molloy et al., 1992): 1.6 mol/min per mol of enzyme; pH optimum ([1]; furin and the prohormone convertases, Nakayama, 1997): 6-7 |
| S1P-B: amino acids 138-1052 of SEQ ID NO:1 (protein) FAESDPIVPCNETRWSQKWQSSRPLRRASLSLGSGFWHATGRHSSRRLLRAIPRQVAQTLQADVLWQMGYTGANVRVAVFDTGLSEKHPHFKNVKERTNWTNERTLDDGLGHGTFVAGVIASMRECQGFAPDAELHIFRVFTNNQVSYTSWFLDAFNYAILKKIDVLNLSIGGPDFMDHPFVDKVWELTANNVIMVSAIGNDGPLYGTLNNPADQMDVIGVGGIDFEDNIARFSSRGMTTWELPGGYGRVKPDIVTYGAGVRGSGVKGGCRALSGTSVASPVVAGAVTLLVSTVQKRELVNPASVKQALIASARRLPGVNMFEQGHGKLDLLRAYQILSSYKPQASLSPSYIDLTECPYMWPYCSQPIYYGGMPTIVNVTILNGMGVTGRIVDKPEWRPYLPQNGDNIEVAFSYSSVLWPWSGYLAISISVTKKAASWEGIAQGHIMITVASPAETEAKNGAEHTSTVKLPIKVKIIPTPPRSKRVLWDQYHNLRYPPGYFPRDNLRMKNDPLDWNGDHVHTNFRDMYQHLRSMGYFVEVLGAPFTCFDATQYGTLLMVDSEEEYFPEEIAKLRRDVDNGLSLVIFSDWYNTSVMRKVKFYDENTRQWWMPDTGGANIPALNELLSVWNMGFSDGLYEGEFALANHDMYYASGCSIAKFPEDGVVITQTFKDQGLEVLKQETAVVENVPILGLYQIPAEGGGRIVLYGDSNCLDDSHRQKDCFWLLDALLQYTSYGVNPPSLSHSGNRQRPPSGAGLAPPERMEGNHLHRYSKVLEAHLGDPKPRPLPACPHLSWAKPQPLNETAPSNLWKHQKLLSIDLDKVVLPNFRSNRPQVRPLSPGESGAWDIPGGIMPGRYNQEVGQTIPVFAFLGAMVALAFFVVQISKAKSRPKRRRPRAKRPQLTQQTHPPRTPSV | active |  |
| Site-B mutant: S1P with amino acids 134-137 mutated from RSLK to AAAA (protein) MKLINIWLLLLVVLLCGKKHLGDRLGKKAFEKASCPSCSHLTLKVEFSSTVVEYEYIVAFNGYFTAKARNSFISSALKSSEVDNWRIIPRNNPSSDYPSDFEVIQIKEKQKAGLLTLEDHPNIKRVTPQRKVFAAAAFAESDPIVPCNETRWSQKWQSSRPLRRASLSLGSGFWHATGRHSSRRLLRAIPRQVAQTLQADVLWQMGYTGANVRVAVFDTGLSEKHPHFKNVKERTNWTNERTLDDGLGHGTFVAGVIASMRECQGFAPDAELHIFRVFTNNQVSYTSWFLDAFNYAILKKIDVLNLSIGGPDFMDHPFVDKVWELTANNVIMVSAIGNDGPLYGTLNNPADQMDVIGVGGIDFEDNIARFSSRGMTTWELPGGYGRVKPDIVTYGAGVRGSGVKGGCRALSGTSVASPVVAGAVTLLVSTVQKRELVNPASVKQALIASARRLPGVNMFEQGHGKLDLLRAYQILSSYKPQASLSPSYIDLTECPYMWPYCSQPIYYGGMPTIVNVTILNGMGVTGRIVDKPEWRPYLPQNGDNIEVAFSYSSVLWPWSGYLAISISVTKKAASWEGIAQGHIMITVASPAETEAKNGAEHTSTVKLPIKVKIIPTPPRSKRVLWDQYHNLRYPPGYFPRDNLRMKNDPLDWNGDHVHTNFRDMYQHLRSMGYFVEVLGAPFTCFDATQYGTLLMVDSEEEYFPEEIAKLRRDVDNGLSLVIFSDWYNTSVMRKVKFYDENTRQWWMPDTGGANIPALNELLSVWNMGFSDGLYEGEFALANHDMYYASGCSIAKFPEDGVVITQTFKDQGLEVLKQETAVVENVPILGLYQIPAEGGGRIVLYGDSNCLDDSHRQKDCFWLLDALLQYTSYGVNPPSLSHSGNRQRPPSGAGLAPPERMEGNHLHRYSKVLEAHLGDPKPRPLPACPHLSWAKPQPLNETAPSNLWKHQKLLSIDLDKVVLPNFRSNRPQVRPLSPGESGAWDIPGGIMPGRYNQEVGQTIPVFAFLGAMVALAFFVVQISKAKSRPKRRRPRAKRPQLTQQTHPPRTPSV | weak activity | expression level required for SREBP-2 cleavage, compared to wild-type S1P ([2]; pTK plasmids, FIG. 16): > 10 -fold |
| Site B+C mutant: S1P containing both the Site-B and Site-C mutations (protein) DGGRSEQKLISEEDLNGEQKLISEEDLNGEQKLISEEDLNSSGRLGKKAFEKASCPSCSHLTLKVEFSSTVVEYEYIVAFNGYFTAKARNSFISSALKSSEVDNWRIIPRNNPSSDYPSDFEVIQIKEKQKAGLLTLEDHPNIKRVTPQRKVFAAAAFAESDPIVPCNETRWSQKWQSSRPLVAASLSLGSGFWHATGRHSSAAAAAAIPRQVAQTLQADVLWQMGYTGANVRVAVFDTGLSEKHPHFKNVKERTNWTNERTLDDGLGHGTFVAGVIASMRECQGFAPDAELHIFRVFTNNQVSYTSWFLDAFNYAILKKIDVLNLSIGGPDFMDHPFVDKVWELTANNVIMVSAIGNDGPLYGTLNNPADQMDVIGVGGIDFEDNIARFSSRGMTTWELPGGYGRVKPDIVTYGAGVRGSGVKGGCRALSGTSVASPVVAGAVTLLVSTVQKRELVNPASVKQALIASARRLPGVNMFEQGHGKLDLLRAYQILSSYKPQASLSPSYIDLTECPYMWPYCSQPIYYGGMPTIVNVTILNGMGVTGRIVDKPEWRPYLPQNGDNIEVAFSYSSVLWPWSGYLAISISVTKKAASWEGIAQGHIMITVASPAETEAKNGAEHTSTVKLPIKVKIIPTPPRSKRVLWDQYHNLRYPPGYFPRDNLRMKNDPLDWNGDHVHTNFRDMYQHLRSMGYFVEVLGAPFTCFDATQYGTLLMVDSEEEYFPEEIAKLRRDVDNGLSLVIFSDWYNTSVMRKVKFYDENTRQWWMPDTGGANIPALNELLSVWNMGFSDGLYEGEFALANHDMYYASGCSIAKFPEDGVVITQTFKDQGLEVLKQETAVVENVPILGLYQIPAEGGGRIVLYGDSNCLDDSHRQKDCFWLLDALLQYTSYGVNPPSLSHSGNRQRPPSGAGLAPPERMEGNHLHRYSKVLEAHLGDPKPRPLPACPHLSWAKPQPLNETAPSNLWKHQKLLSIDLDKVVLPNFRSNRPQVRPLSPGESGAWDIPGGIMPGRYNQEVGQTIPVFAFLGAMVALAFFVVQISKAKSRPKRRRPRAKRPQLTQQTHPPRTPSV | no detectable cleaved nuclear form |  |
| S1P-A: amino acids 23-1052 of SEQ ID NO:1 (protein) DRLGKKAFEKASCPSCSHLTLKVEFSSTVVEYEYIVAFNGYFTAKARNSFISSALKSSEVDNWRIIPRNNPSSDYPSDFEVIQIKEKQKAGLLTLEDHPNIKRVTPQRKVFRSLKFAESDPIVPCNETRWSQKWQSSRPLRRASLSLGSGFWHATGRHSSRRLLRAIPRQVAQTLQADVLWQMGYTGANVRVAVFDTGLSEKHPHFKNVKERTNWTNERTLDDGLGHGTFVAGVIASMRECQGFAPDAELHIFRVFTNNQVSYTSWFLDAFNYAILKKIDVLNLSIGGPDFMDHPFVDKVWELTANNVIMVSAIGNDGPLYGTLNNPADQMDVIGVGGIDFEDNIARFSSRGMTTWELPGGYGRVKPDIVTYGAGVRGSGVKGGCRALSGTSVASPVVAGAVTLLVSTVQKRELVNPASVKQALIASARRLPGVNMFEQGHGKLDLLRAYQILSSYKPQASLSPSYIDLTECPYMWPYCSQPIYYGGMPTIVNVTILNGMGVTGRIVDKPEWRPYLPQNGDNIEVAFSYSSVLWPWSGYLAISISVTKKAASWEGIAQGHIMITVASPAETEAKNGAEHTSTVKLPIKVKIIPTPPRSKRVLWDQYHNLRYPPGYFPRDNLRMKNDPLDWNGDHVHTNFRDMYQHLRSMGYFVEVLGAPFTCFDATQYGTLLMVDSEEEYFPEEIAKLRRDVDNGLSLVIFSDWYNTSVMRKVKFYDENTRQWWMPDTGGANIPALNELLSVWNMGFSDGLYEGEFALANHDMYYASGCSIAKFPEDGVVITQTFKDQGLEVLKQETAVVENVPILGLYQIPAEGGGRIVLYGDSNCLDDSHRQKDCFWLLDALLQYTSYGVNPPSLSHSGNRQRPPSGAGLAPPERMEGNHLHRYSKVLEAHLGDPKPRPLPACPHLSWAKPQPLNETAPSNLWKHQKLLSIDLDKVVLPNFRSNRPQVRPLSPGESGAWDIPGGIMPGRYNQEVGQTIPVFAFLGAMVALAFFVVQISKAKSRPKRRRPRAKRPQLTQQTHPPRTPSV | inactive |  |
| S1P-C: amino acids 187-1052 of SEQ ID NO:1 (protein) RAIPRQVAQTLQADVLWQMGYTGANVRVAVFDTGLSEKHPHFKNVKERTNWTNERTLDDGLGHGTFVAGVIASMRECQGFAPDAELHIFRVFTNNQVSYTSWFLDAFNYAILKKIDVLNLSIGGPDFMDHPFVDKVWELTANNVIMVSAIGNDGPLYGTLNNPADQMDVIGVGGIDFEDNIARFSSRGMTTWELPGGYGRVKPDIVTYGAGVRGSGVKGGCRALSGTSVASPVVAGAVTLLVSTVQKRELVNPASVKQALIASARRLPGVNMFEQGHGKLDLLRAYQILSSYKPQASLSPSYIDLTECPYMWPYCSQPIYYGGMPTIVNVTILNGMGVTGRIVDKPEWRPYLPQNGDNIEVAFSYSSVLWPWSGYLAISISVTKKAASWEGIAQGHIMITVASPAETEAKNGAEHTSTVKLPIKVKIIPTPPRSKRVLWDQYHNLRYPPGYFPRDNLRMKNDPLDWNGDHVHTNFRDMYQHLRSMGYFVEVLGAPFTCFDATQYGTLLMVDSEEEYFPEEIAKLRRDVDNGLSLVIFSDWYNTSVMRKVKFYDENTRQWWMPDTGGANIPALNELLSVWNMGFSDGLYEGEFALANHDMYYASGCSIAKFPEDGVVITQTFKDQGLEVLKQETAVVENVPILGLYQIPAEGGGRIVLYGDSNCLDDSHRQKDCFWLLDALLQYTSYGVNPPSLSHSGNRQRPPSGAGLAPPERMEGNHLHRYSKVLEAHLGDPKPRPLPACPHLSWAKPQPLNETAPSNLWKHQKLLSIDLDKVVLPNFRSNRPQVRPLSPGESGAWDIPGGIMPGRYNQEVGQTIPVFAFLGAMVALAFFVVQISKAKSRPKRRRPRAKRPQLTQQTHPPRTPSV | active |  |
